Positions count from the first letter of the chain named.
How the values were obtained:
[1] = target: HER3 on tumor cell lines (NCI-N87, MDA-MB-468, MDA-MB-453, HCC1569 and other cells with different HER3 surface levels) (UniProt P21860); assay: cell-based or functional assay
[2] = target: HER3 on tumor cell lines (NCI-N87, MDA-MB-468, MDA-MB-453, HCC1569 and other cells with different HER3 … (UniProt P21860 20-1342, limits assumed)); assay: cell-based or functional assay
human HER3-huFc [3] = target: T1, human HER3-huFc (human, UniProt P21860 20-643); assay: ELISA after 5 freeze-thaw cycles
T1 construct: also called huHER3; not shown: human Fc (huFc)

human HER3-huFc [4] = target: T1, human HER3-huFc; assay: ELISA, 0 freeze-thaw cycles
human HER3-huFc [5] = target: T1, human HER3-huFc; assay: ELISA after 7 days at 40 °C
Procedure: (§1) Antibody stability test: the purified antibody at 5 mg/mL was stored at 4° C. as regular practice, incubated at 40° C. for 7 days and 14 days for heat stability evaluation, transferred to a glycine solution at pH 3.5 for regeneration, and stored for 2, 4 and 6 h for acid stability evaluation, or subjected to repeated freeze-thaw treatments for 4 or 6 cycles for freeze-thaw stability evaluation. Aggregation was measured by SEC-HPLC, and binding affinity was determined by ELISA.
(§2) The chimeric antibody 3F8 was subjected to parallel assay.

human HER3-huFc [6] = target: T1, human HER3-huFc; assay: ELISA after 14 days at 40 °C
Procedure: as §1, §2

human HER3-huFc [7] = target: T1, human HER3-huFc; assay: ELISA, 0 days at 40 °C
Procedure: as §1, §2

His-HER3 = target: T2, His-HER3 (UniProt P21860 20-643, limits assumed); assay: SPR, Biacore T200, antibody captured on protein A chip, His-HER3 as analyte
T2 construct: Analyte of the Biacore assay; not shown: His tag
Procedure: Affinity assay by surface plasmon resonance (SPR): antibody kinetics and affinity were determined using Biacore T200. Briefly, the recombinant human HER3 antibody was immobilized on a protein A chip (GE, Cat. 29-1275-5).
The binding affinity of humanized 3F8 (hu3F8) and chimeric 3F8. Binding kinetics of 3 humanized 3F8 clones and chimeric 3F8 were determined by Biacore. Three humanized 3F8 clones (clone 1, clone 2 and clone 3) had different heavy chains and one identical light chain. Clone 1, clone 2, and clone 3 corresponded to hu3F8-1, hu3F8-2, and hu3F8-3, respectively.

human HER3-huFc [8] = target: T1, human HER3-huFc; assay: ELISA after 2 h of incubation at pH 3.5
Procedure: as §1
(§3) EC50 was determined by ELISA.

human HER3-huFc [9] = target: T1, human HER3-huFc; assay: ELISA after 6 h of incubation at pH 3.5
Procedure: as §1, §3

human HER3-huFc [10] = target: T1, human HER3-huFc; assay: ELISA after 0 h of incubation at pH 3.5
Procedure: as §1, §3

human HER3-huFc [11] = target: T1, human HER3-huFc; assay: ELISA after 4 h of incubation at pH 3.5
Procedure: as §1, §3

human HER3-huFc [12] = target: T1, human HER3-huFc; assay: ELISA after 3 freeze-thaw cycles
human HER3-huFc [13] = target: T1, human HER3-huFc; assay: ELISA after 0 h of incubation at pH 3.5; 0 h of incubation at pH 3.5 (untreated time point)
Procedure: as §1, §3

Molecule: Reference ADC-1 (U3-1402) (antibody)
- HCC1569 IC50 (nM), inhibition of in vitro proliferation (CTG, 6 days) [1]: 40.7 nM
- MDA-MB-453 IC50 (nM), inhibition of in vitro proliferation (CTG, 6 days) [1]: 9.62 nM

B1: antibody-drug conjugate ADC-1-X1 (hu3F8-2-X1) (antibody, human IgG1, kappa, V domains shown)
VH: QVQLQESGPGLVKPSETLSLTCTVSGYSITSAYYWNWIRQPFGKGLEWMGYISYDGRNNFNPSLKNRVTISRDTSKNQFSLKLSSVTAADTAVYYCARDGDYDYFDYWGQGTTVTVSS
VL: DIQMTQSPSSLSASVGDRVTITCRASQDISNYLNWYQQKPGKAPKLLIYYTSILHSGVPSRFSGSGSGTDYTFTISSLQPEDIATYFCQQGDTLPPTFGGGTKLEIKR
modifications: linker-payload X1 coupled after TCEP reduction; positions not given; linker-payload X1 coupled after TCEP reduction; positions not given; DAR 7.12 for the whole antibody
- HCC1569 IC50 (nM), inhibition of in vitro proliferation (CTG, 6 days) [2]: 0.115 nM
- MDA-MB-453 IC50 (nM), inhibition of in vitro proliferation (CTG, 6 days) [2]: 0.042 nM

B2: antibody-drug conjugate ADC-1-X2 (hu3F8-2-X2) (antibody, human IgG1, kappa, V domains shown)
VH: B1 VH
VL: B1 VL
modifications: linker-payload X2 coupled after TCEP reduction; positions not given; linker-payload X2 coupled after TCEP reduction; positions not given; DAR 7.53 for the whole antibody
- HCC1569 IC50 (nM), inhibition of in vitro proliferation (CTG, 6 days) [2]: 5.17 nM
- MDA-MB-453 IC50 (nM), inhibition of in vitro proliferation (CTG, 6 days) [2]: 0.094 nM

B3: humanized 3F8 antibody hu3F8-2 (antibody, human IgG1, kappa, V domains shown)
VH: B1 VH
VL: B1 VL
notes: also called Clone 2; clone-2
- EC50 (human HER3-huFc [3]): 0.0438 µg/mL
- EC50 (human HER3-huFc [4]): 0.0425 µg/mL
- EC50 (human HER3-huFc [5]): 0.0481 µg/mL
- EC50 (human HER3-huFc [6]): 0.052 µg/mL
- EC50 (human HER3-huFc [7]): 0.0454 µg/mL
- Kd (His-HER3): 0.492 nM
- koff (His-HER3): 0.000328 s⁻¹
- kon (His-HER3): 666000 M⁻¹ s⁻¹
- EC50 (human HER3-huFc [8]): 0.0483 µg/mL
- EC50 (human HER3-huFc [9]): 0.0412 µg/mL
- EC50 (human HER3-huFc [10]): 0.045 µg/mL
- EC50 (human HER3-huFc [11]): 0.0445 µg/mL
- EC50 (human HER3-huFc [12]): 0.0467 µg/mL

B4: humanized 3F8 antibody hu3F8-1 (antibody, human IgG1, kappa, V domains shown)
VH: B1 VH with F42P, M49I, R72V
VL: B1 VL
notes: also called Clone 1; clone-1
- EC50 (human HER3-huFc [3]): 0.0386 µg/mL
- EC50 (human HER3-huFc [4]): 0.0454 µg/mL
- EC50 (human HER3-huFc [13]): 0.0387 µg/mL
- EC50 (human HER3-huFc [5]): 0.0423 µg/mL
- EC50 (human HER3-huFc [6]): 0.041 µg/mL
- EC50 (human HER3-huFc [7]): 0.0392 µg/mL
- Kd (His-HER3): 1.09 nM
- koff (His-HER3): 0.000612 s⁻¹
- kon (His-HER3): 560000 M⁻¹ s⁻¹
- EC50 (human HER3-huFc [8]): 0.0381 µg/mL
- EC50 (human HER3-huFc [9]): 0.039 µg/mL
- EC50 (human HER3-huFc [11]): 0.0409 µg/mL
- EC50 (human HER3-huFc [12]): 0.0443 µg/mL

B5: humanized 3F8 antibody hu3F8-3 (antibody, human IgG1, kappa, V domains shown)
VH: B1 VH with T69S, V93T
VL: B1 VL
notes: also called Clone 3; clone-3
- EC50 (human HER3-huFc [3]): 0.0336 µg/mL
- EC50 (human HER3-huFc [4]): 0.0423 µg/mL
- EC50 (human HER3-huFc [5]): 0.047 µg/mL
- EC50 (human HER3-huFc [6]): 0.0413 µg/mL
- EC50 (human HER3-huFc [7]): 0.0424 µg/mL
- Kd (His-HER3): 0.54 nM
- koff (His-HER3): 0.000348 s⁻¹
- kon (His-HER3): 644000 M⁻¹ s⁻¹
- EC50 (human HER3-huFc [8]): 0.0417 µg/mL
- EC50 (human HER3-huFc [9]): 0.0381 µg/mL
- EC50 (human HER3-huFc [10]): 0.0387 µg/mL
- EC50 (human HER3-huFc [11]): 0.0394 µg/mL
- EC50 (human HER3-huFc [12]): 0.0374 µg/mL

B6: chimeric 3F8 antibody (antibody, human IgG1, V domains shown)
VH: DVQLQESGPGLVKPSQSLSLTCSVTGYSITSAYYWNWIRQFPGDKLEWMGYISYDGRNNFNPSLKNRISITRDTSKNQFFLKLNSVTSGDTATYYCARDGDYDYFDYWGQGTTLTVSS
VL: DIQMTQTTSSLSASLGDRVTISCRASQDISNYLNWYQQKPDGTFKLLIYYTSILHSGVPSRFSGSGSGTDYSLTISNLEQEDIATYFCQQGDTLPPTFGAGTKLELK
notes: also called ch3F8; Chimeric antibody
- EC50 (human HER3-huFc [4]): 0.0471 µg/mL
- EC50 (human HER3-huFc [7]): 0.0474 µg/mL
- Kd (His-HER3): 0.624 nM
- koff (His-HER3): 0.000391 s⁻¹
- kon (His-HER3): 628000 M⁻¹ s⁻¹

From patent US20250295802A1, “HER3 ANTIBODY-DRUG CONJUGATE AND USE THEREOF” (DUALITY BIOLOGICS (SUZHOU) CO., LTD., priority 2022, published 2025)
